Tested on: Escherichia coli TOP10
Test: shrunken log2 fold change of peptide-encoding DNA abundance (4.5 h post-induction vs induction); higher = less antimicrobial activity (less host growth inhibition)
Settings: time post-induction: 4.5 h; library: site-saturation at positions 5, 18, 19, 20
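Further: peptides expressed intracellularly from a pBAD plasmid library in pooled LB shake-flask culture, induced with 0.3% L-arabinose, DNA abundance read by NGS, three biological replicates, DESeq2 with apeglm shrinkage.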

Row | Sequence | shrunken log2 fold change
1 | RRIRDRPPRLPRPRPRPIVTPRP | 0.171
2 | RRIRDRPPRLPRPRPRPIYIPRP | -0.288
3 | RRIRDRPPRLPRPRPRPIYRPRP | -0.175
4 | RRIRDRPPRLPRPRPRPKCAPRP | 0.169
5 | RRIRDRPPRLPRPRPRPKCGPRP | 0.00846
6 | RRIRDRPPRLPRPRPRPKDHPRP | 0.0158
7 | RRIRDRPPRLPRPRPRPKETPRP | -0.0231
8 | RRIRDRPPRLPRPRPRPKFWPRP | 0.442
9 | RRIRDRPPRLPRPRPRPKGAPRP | 0.368
10 | RRIRDRPPRLPRPRPRPKGEPRP | 0.0647
11 | RRIRDRPPRLPRPRPRPKGQPRP | 0.116
12 | RRIRDRPPRLPRPRPRPKHRPRP | 0.114
13 | RRIRDRPPRLPRPRPRPKIEPRP | -0.305
14 | RRIRDRPPRLPRPRPRPKKEPRP | 0.0609
15 | RRIRDRPPRLPRPRPRPKKMPRP | -0.0785
16 | RRIRDRPPRLPRPRPRPKKTPRP | -0.0142
17 | RRIRDRPPRLPRPRPRPKLAPRP | 0.271
18 | RRIRDRPPRLPRPRPRPKLEPRP | 0.434
19 | RRIRDRPPRLPRPRPRPKLQPRP | 0.08
20 | RRIRDRPPRLPRPRPRPKLWPRP | 0.527
21 | RRIRDRPPRLPRPRPRPKMKPRP | -0.42
22 | RRIRDRPPRLPRPRPRPKNAPRP | -0.0796
23 | RRIRDRPPRLPRPRPRPKPYPRP | -0.12
24 | RRIRDRPPRLPRPRPRPKQCPRP | 0.101
25 | RRIRDRPPRLPRPRPRPKQRPRP | 0.314
26 | RRIRDRPPRLPRPRPRPKRCPRP | 0.0311
27 | RRIRDRPPRLPRPRPRPKRPPRP | 0.449
28 | RRIRDRPPRLPRPRPRPKRWPRP | 0.0314

Row | Sequence | shrunken log2 fold change
29 | RRIRDRPPRLPRPRPRPKTVPRP | 0.271
30 | RRIRDRPPRLPRPRPRPKVIPRP | -0.176
31 | RRIRDRPPRLPRPRPRPKWPPRP | 0.466
32 | RRIRDRPPRLPRPRPRPLAKPRP | 0.96
33 | RRIRDRPPRLPRPRPRPLANPRP | 0.861
34 | RRIRDRPPRLPRPRPRPLCGPRP | 0.32
35 | RRIRDRPPRLPRPRPRPLCMPRP | 0.43
36 | RRIRDRPPRLPRPRPRPLCYPRP | 0.00826
37 | RRIRDRPPRLPRPRPRPLDGPRP | 0.0131
38 | RRIRDRPPRLPRPRPRPLEFPRP | -0.158
39 | RRIRDRPPRLPRPRPRPLGIPRP | 0.143
40 | RRIRDRPPRLPRPRPRPLGLPRP | 0.0955
41 | RRIRDRPPRLPRPRPRPLGTPRP | 0.706
42 | RRIRDRPPRLPRPRPRPLGVPRP | 0.577
43 | RRIRDRPPRLPRPRPRPLIFPRP | 0.135
44 | RRIRDRPPRLPRPRPRPLKSPRP | 0.00491
45 | RRIRDRPPRLPRPRPRPLLHPRP | 0.114
46 | RRIRDRPPRLPRPRPRPLLVPRP | 0.134
47 | RRIRDRPPRLPRPRPRPLPQPRP | 0.282
48 | RRIRDRPPRLPRPRPRPLPRPRP | 0.391
49 | RRIRDRPPRLPRPRPRPLRLPRP | 0.0919
50 | RRIRDRPPRLPRPRPRPLSRPRP | -0.113
51 | RRIRDRPPRLPRPRPRPLTCPRP | 0.254
52 | RRIRDRPPRLPRPRPRPLTGPRP | 0.266
53 | RRIRDRPPRLPRPRPRPLTYPRP | -0.339
54 | RRIRDRPPRLPRPRPRPLWDPRP | -0.0822
55 | RRIRDRPPRLPRPRPRPLWEPRP | 0.0751

Source: the supplement of paper PMC9112550, “Optimization of the antimicrobial peptide Bac7 by deep mutational scanning” (BMC Biology, 2022)
